Columns and labels:
BmMDH2 = BmMDH2 (Bacillus methanolicus, UniProt I3E949); assay: BmMDH2 activation by ACT, NADH formation monitored at 340 nm; type: biochemical; details: 100 nM BmMDH2, 3 mM NAD+, pH 9.5
Method: Figure 1 ACT-catalyzed conversion of NAD^+ into a compound that activates BmMDH2.A, effect of ACT concentration on BmMDH2 activation. The formation of NADH was monitored at 340 nm, with 100 nM BmMDH2 in glycine-NaOH buffer (pH 9.5) containing 0 to 125 nM ACT, 3 mM NAD^+, 20 mM ethanol, 5 mM MgCl2 and 0.5 mM MnCl2. Data for the initial 10 min are highlighted in the right panel. Data were from a single experiment. B, effects of the following treatments on BmMDH2 activation: preincubated ACT & NAD^+ (red), preincubated ACT & BmMDH2 (blue), ultrafiltrate of preincubated ACT & NAD^+ (green), and ultrafiltrate of ACT (purple) or NAD^+ (cyan) solutions. Preincubations were performed in glycine-NaOH buffer (pH 9.5) with 5 mM MgCl2 and 0.5 mM MnCl2 at 25 °C for 30 min. Ethanol, BmMDH2, or NAD^+ was subsequently added to achieve final concentrations of 10 nM ACT, 20 mM ethanol, 3 mM NAD^+, and 200 nM BmMDH2. For ultrafiltration, preincubated samples were filtered (10 kDa cutoff, Millipore), and the flowthrough was used for activation assays. Data represent means ± SD (n = 3). C, effect of NAD^+ concentration on BmMDH2 activation. Activity was measured using 100 nM BmMDH2 in glycine-NaOH buffer (pH 9.5) with 50 nM ACT, 0 to 20 mM NAD^+, 5 mM MgCl2, and 0.5 mM MnCl2. Data were from a single experiment. D, time-course of BmMDH2 activation. Reaction were performed in 200 μl glycine-NaOH buffer (100 mM, pH 9.5) with 5 mM MgCl2, 0.5 mM MnCl2, 0.25 mM NAD^+, 0.1 μM BmMDH2, 20 mM ethanol, and 50 nM ACT. Fresh NAD^+ (4 μl, 150 mM) was added twice during the reaction. Data were from a single experiment. E, catalytic rates of BmMDH2 were calculated from the slopes of the data in panel D. Additional replicates of the experiments shown in panels A, C, and D are provided in Fig. S4. […]
The catalytic processes of MDHs were monitored by measuring NADH absorbance at 340 nm using a Tecan SPARK UV-Vis plate reader (Tecan Austria GmbH) at 25 °C. […]

[1] = Specific activity of ACT and its mutants for the hydrolysis of ADPR; type: biochemical
Method: After a 5-minute incubation at 25°C, the reaction was terminated by the addition of 10 μL of 3 M H₂SO₄. The products were subsequently analyzed by HPLC.

BmMDH1 = details: ref [14], [15]; cited from earlier work

Sequence of BmMDH2 (I3E949 entry or part of it): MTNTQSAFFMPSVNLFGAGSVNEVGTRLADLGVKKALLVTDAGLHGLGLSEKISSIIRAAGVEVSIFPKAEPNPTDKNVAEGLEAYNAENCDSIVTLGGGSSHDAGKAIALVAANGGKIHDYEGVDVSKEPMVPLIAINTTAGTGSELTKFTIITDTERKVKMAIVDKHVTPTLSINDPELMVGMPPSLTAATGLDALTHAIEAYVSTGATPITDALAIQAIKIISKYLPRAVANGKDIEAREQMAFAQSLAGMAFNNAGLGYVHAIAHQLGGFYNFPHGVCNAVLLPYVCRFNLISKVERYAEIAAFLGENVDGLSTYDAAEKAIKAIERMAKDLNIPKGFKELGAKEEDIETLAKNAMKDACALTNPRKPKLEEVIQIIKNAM

B1: ACT: activator protein ACT, Nudix hydrolase from B. methanolicus MGA3 with ADPRase activity (protein)
chain: MGKLFEEKTIKTEQIFSGRVVKLQVDDVELPNGQTSKREIVRHPGAVAVIAITNENKIVMVEQYRKPLEKSIVEIPAGKLEKGEDPRVTALRELEEETGYECEQMEWLISFATSPGFADEIIHLYVAKGLSKKENAAGLDEDEFVDLIELTLDEALQYIKEKRIYDSKTVIAVQYLQLQEALK
modifications: left off: His tag (from the vector pET21a(+) and the Ni-affinity column), end not stated, state not stated
- time to full activation of BmMDH2 (BmMDH2; 31.3 nM ACT): ≤ 2.8 min
- ACT concentration that triggered immediate BmMDH2 activation (BmMDH2): > 62 nM
- Specific activity (ADPRase) ([1]; pH 8.0, 400 μM ADPR, 5 mM MgCl2, 25 °C): 61.2 ± 0.5 U/mg
- ADPRase activity ([1]; pH 9.5): 51.6 ± 0.4 U/mg
- increase of BmMDH1 activity (BmMDH1): 40 fold

Source: article PMC12926040, “ADP-ribose is a competitive inhibitor of methanol dehydrogenases from Bacillus methanolicus” (The Journal of Biological Chemistry, 2025)
